# Measured values reported in the nanobody polyreactivity screen of Harvey et al. (2022).
# Assay: yeast display, Sf9 membrane polyspecificity reagent, FACS + sequencing; frameworks hold sequencing errors
# Outline: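 A nanobody's polyreactivity label depends on the gate it was sorted from. Yeast display cells were stained with 10% biotinylated, detergent-solubilized Sf9 membrane reagent for 1 hour at 4 °C, enriched on streptavidin microbeads and sorted by FACS. The low and high (top ~1%) gates were set on anti-HA fluorescence for expression and streptavidin fluorescence for reagent binding.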
row,Sequence,polyreactivity (PSR sort gate)
1,QVQLVESGGGLGQAGGSLRLSCAASGSTFQTKAMGWYRQAPGKERELVAAINSGGGTNYADSVKGRFTISRDNAKNTVYLQMNSLKPEDTAVYYCATDVLPRKYVSDYPSGAYDYWGQGTQVTVSS,low polyreactivity
2,QVQLVESGGGLVQAGGSLRLSCAASGRTLGIYAMGWYRQAPGTERELVAAITLSGSDTYYADSVKGRFTISRDNAKNTVDLQMNSLKPEDTAVYYCAAKTYGGYGKYGYWGQGTQVTVSS,low polyreactivity
3,QVQLVESGGGLVQAGGSLRLSCDASGRTFVVNAMGWYRQAPGKERELVAAITRRGGITYYADSVKGRFTISRDNAKNTVYLQMNSLKPEDTAVYYCAADRSYYPDTRTTYGYNYWGQGTQVTVSS,low polyreactivity
4,QVQLVESGGGLVQARGSLRLTCAASGNIFVSYAMGWYRPAPGKERELVAAISKRGGSTYYADSVKGRFTISRDNAKNTVDLQMISLKPEDTAVYYCAALGHVDDSIYDYWGQGTQVTVSS,high polyreactivity
5,QVQLVESGGGLVQAGGSLRLSCAASGSTFNQYAMGWYRQAPGKEREFVATITWSGGRTYYADSVKGRFTISRDNAKNTVYLQMISLKPEDTAVYYCAAQPDYRPSYGYGYWGQGTQVTVSS,low polyreactivity
6,QVQLVESGGGLVQAGGSLRLTCAASGRTFYPYAMGWYRPAPGKERELVAAISSGVRTYYADSVKGRFTISRDNAKNTVYLQMNSLKPDDTAVYYCAARRSIWGQGTQVTVSS,high polyreactivity
7,QDQLVESGGCLVQAGGSLRLRCAASGITFDRYTMGWYRQAPGKERELVAAIRSGGGTYYADSVKGRFTISRDNAKNTVYLQMNSLKPEDTAVYYCAATRVSPSQYLRYYYWGQGTQVTVSS,high polyreactivity
8,QVHLVESGGGLVQAGGSLRLRSAASGRTFGWNVMGWYRQAPGKERELVAAISGSGGSTYYADSVKGRFTISRDNAKNTVYLQMNSLKPEDTAVYYCDALYGPGREYDYWGQGTQVTVSS,low polyreactivity
9,QVQLVESGGGLVQAGGSLRLSCAASGRTLYLYAMGWYRQAPGKERELVAGITWSGGSTYYADSVKGRFTISRDNAKNTVYLQMNSLKPEDTAVYYCAAVSYPDYDYWGQGTQVTVSS,low polyreactivity
10,QVQLVESGGGLVQAGGSLRLSCAASGGTFYRYAMGWYRQAPGNERELVAAISSSGGRTYYADSVKGRFTISRDNAKNTVYVQMNSLKPEDTAVYYCNARYPRLHRTYNYWGQGTQVTVSS,high polyreactivity
11,QVQLVESGGGLVQAGGSLRLSCAASGIIFHYYAMGWYRQAPGKEREFVASISFSGASTYYADSVKGRFTISRDNAKNTVYLQMNSLKPEDTAVYYCAARYLYGPKYYYCGQGTQVTVSS,high polyreactivity
12,QVQLVESGGGLVQAGGSLRLSCAASGSIFYSNVMGWYRQAPGQERELVARITDAGSTNYADSVKGRFTISRDNAKHTVYFQMNSLKPEDTAVYYCNARLVIYTFDYWGQGTLVTVSS,low polyreactivity
13,QVQLVESGGGLVQAGGSLRLSCAASGIIFHRYAMGWYRQAPGKERELVAAISWNGGSTYYADSVKGRFTISRDNAKNTVYLQMNSLKPEDTAVYYCAARKLYSNISGYWGQGTLVTVSS,high polyreactivity
14,QVQLVESGGGLVQAGGSLRLSCAASGSIFGDNAMGWYRQAPGKERELVAAISTRGGRTYYADSVKGRFTISRDNAKNTVYLQMNSLKPEDSAVYYCATSGGRPYKYEYWGQGTQVTVSS,high polyreactivity
15,QVQLVESGGGLVQAGGSLRLSCAASGRTFWYYTMGWYRQAPGKERELVAAISGSGGRTYYADSVKGRFTISRDNAKNTVYLQMNSLKPEDTAVYYCAARRAYFVAYIYDRDYWGQGTQVTVSS,high polyreactivity
16,QVQLVESGGGLVQAGGSLRLSCAASGLTFSVYAMGWYRPAPGKERELVAAISGSGGSTYYADSVKGRFTISRDNAKNTVYLQMNSLKPEDTAVYYCAARYDVHYDGMDYWGQGTQVTLSS,low polyreactivity

row,Sequence,polyreactivity (PSR sort gate)
1,QVQLVESGGGLVQAGGSLRLSCAASGFIFYLNAMGWYRQAPGKERELVAAISGRGGRTYYADSVKGRFTISRDNAKNTVYLQMNSLKPEDTAVYYCAAQYVPSRYGYWGQGTQVTVSS,high polyreactivity
2,QVQLVESGGGLVQAGGSLRLSCAASGNTFGYNAMGWYRQAPGKERELVAAISWRGGRTYYADSVKGRFTISRDHAKNTVYLQMNILKTEDTAVYYCAARRHSTRLRLTYDYWGQGTQVTVSW,high polyreactivity
3,QGQLVESGGGLGQAGGTLRLSCAASGFTFSFYAMGWYRQAPGKERELVAAISWSGGSTYYADSVKGRFTISRDNAKNTVYLQMNSLKPEDTAVYYCAAKLLYVGRYGYWGHGTQVTVSS,high polyreactivity
4,QVQLVESGGGLVQAGGSLRLSCAASGSIFRNYAMGWYRQAPGKERELVSAITRGGGSTYYADSVKARFTISRDNAKNTVYLQMNSLKPEETAVYYCAAVRVFQYKYDRFNYWGQGTQVTVSS,high polyreactivity
5,QVQLVESGGGLVQAGGSLRLSCAASGRIFPVNAMGWYRQAPGKEREFVARISRRGGSTYYADSVKGRFTISRDYEKNTVYLQMNSLKPEDTAVYYCAAVSSRYSYDYWGQGTQVTVSS,high polyreactivity
6,QVQLVESGGGLVKAGGSLRLSCAASGRIDWYYAMGLYRQAPRKERDLVAAISRSGGTTYYADSVKGRFTISRDNAKNSVFLQMNSLQPEDTEVYYCAAVFHAYTGYEAWEEYEYWGQGTQVTVSA,high polyreactivity
7,QVQLVESGGGLVQAGGSLRLSCAASGSTFSSNAMGWYRQAPGKERELVAAIDRGGSTYYADSVKGRFTISRDNAKNTVYLQMNSLKPEDNAVYYCNAERETYDYWGQGTQVTVSS,low polyreactivity
8,QVQLVESGGGLVQAGGSLRLSCAASGSTLYTYAMRWYRQAPGKERELVAAIRLSGGRTYYADSVKGRFTISRDNAKNTVYLQMYSLKPEDTAVYDFAVDWSYSRYDYWGQGTQVTVSS,high polyreactivity
9,QVQRVESGGGLVQAGGSLRLSCAASGFIFYDYMGWYRQAPGKERVLVAVISYSGSSTYYADSVKGRFTISRDNAKNTVYLQMNSLKPEDNAVYYCAARKVNGWDYDYWGQGTQVTVSS,low polyreactivity
10,QVQLVESGGGLVQAGGSLRLSCAASGRIFHANAMGWYRQAPGKERELVAGISRNGGRTYYADSVKGRFTISRDNAKNTVYLQMNSLKPEDTAVYYCAKGHKFRFDYWGQGTQVTVSS,high polyreactivity
11,QVQLVESGGGLVQAGGSLRLSCASSGIIFYKYAMGWYRQAPGKERELVAVISRGGGSTYYADSVKGRFTISRDNAKNTVYLQMNSLKPEDTAVYYCAADPRVTRSYTYDYWVQGTQVTVSS,high polyreactivity
12,QVQLVESGGGLVQAGGSLRLSCAASGSIFEIYAMGWYRQAPGKERELVASITWSGGSTYYADSVKGRFTISRDNAKNTVYLQMNSRKPEDTAVYYCATDKLYGRTVRMDYWGQGTQVTVSS,low polyreactivity
13,QVQLVESGGGLVQAGGSLRLSCAASGSIFTGYAMGWYRQAPGKERELVAAISYSTGRTYYADSVKGRFTISRDNAKNTVYLQMNSLKPEDTAVYYCAARYREQYDYWGQGTQVTVSS,low polyreactivity
14,QVHLVESGGGLVQAGGSLRLSCAASGRIFVGYAMGWSRQAPGKERELVAASTSGGITNYADSVKGRFTISRDNAKNTVYIQMTSLKPEATAVYYCNVKRRVSGYYGYKDYYWGQGTQVTVSS,high polyreactivity
15,QVQLVESGRGLVQAGGSLRLSCAASGFIFHRYAMGWYRQAPGKERELFAAITRTGGRTYYADSVKGRFTISRDNAKNTVYLQMNSLKPEDTEVYYCAAVRTLSYEYWGQGTKVTVSS,high polyreactivity
16,QDQLVESGGGLVQAGGSLRLSCAASGSIFVGYAMGWYRQAPGKETELVAAISTRGGSTYYADSVKGRFTISRDNAKNTVYLQMNSVKPEDTAVYYCAADYLDSTYGYVYGWDDYWGQGTQVTVSS,low polyreactivity
